Source: paper PMC2643003, “Improved Learning and Memory in Aged Mice Deficient in Amyloid β-Degrading Neutral Endopeptidase” (PLoS ONE, 2009)

What was measured:
[1] = type: in vitro ADME, mice
Protocol: Figure 5 NEP-dependent neuropeptide degradation. […] The reactions were stopped by adding 0.35 M perchloric acid. In parallel assays, heat-inactivated probes (5 min at 90°C) were used as a control. After centrifugation of sedimented proteins, HPLC analyses were performed by isocratic elution as described by Siems et al.. […] The reactions were stopped by addition of 0.35 M perchloric acid. In parallel assays, heat-inactivated NEP (5 min at 90°C) was used as a control. HPLC analysis was performed by isocratic elution as described. The significance of differences was calculated by two-sided t test; n≥4; **P<0.01. (c) For galanin and GLP-1 immunohistochemistry, slices were incubated with the specific antibodies, followed by incubation with biotinylated anti-rabbit IgG. Immunoreactive products were visualized by the nickel ammonium sulfate-intensified diaminobenzidine reaction. Unequivocally stained regions in the murine cortex were localized and defined as ROIs (regions of interest), and luminometrically compared with adjacent regions without detectable staining (reference ROIs) (for both regions n = 40). The calculated differences were shown as mean±s.e.m.). Significant differences were calculated by Student's t test, indicated by **P<0.01, ***P<0.001.
The production of brain membranes and the HPLC-monitored peptide degradation procedures were performed as described in detail by Siems et al.. […]

[2] = target: T1, recombinant (rc) NEP (Homo sapiens, UniProt P08473); assay: HPLC-monitored peptide degradation by recombinant NEP; type: in vitro ADME; details: peptide 5 µM, rcNEP 20 ng (R&D Systems), over 120 min, stopped with 0.35 M perchloric acid, heat-inactivated control, HPLC isocratic elution, n≥3; values only in Figure 5a
T1 construct: purchased R&D Systems GmbH (Wiesbaden, Germany)
T1 sequence (P08473 whole entry): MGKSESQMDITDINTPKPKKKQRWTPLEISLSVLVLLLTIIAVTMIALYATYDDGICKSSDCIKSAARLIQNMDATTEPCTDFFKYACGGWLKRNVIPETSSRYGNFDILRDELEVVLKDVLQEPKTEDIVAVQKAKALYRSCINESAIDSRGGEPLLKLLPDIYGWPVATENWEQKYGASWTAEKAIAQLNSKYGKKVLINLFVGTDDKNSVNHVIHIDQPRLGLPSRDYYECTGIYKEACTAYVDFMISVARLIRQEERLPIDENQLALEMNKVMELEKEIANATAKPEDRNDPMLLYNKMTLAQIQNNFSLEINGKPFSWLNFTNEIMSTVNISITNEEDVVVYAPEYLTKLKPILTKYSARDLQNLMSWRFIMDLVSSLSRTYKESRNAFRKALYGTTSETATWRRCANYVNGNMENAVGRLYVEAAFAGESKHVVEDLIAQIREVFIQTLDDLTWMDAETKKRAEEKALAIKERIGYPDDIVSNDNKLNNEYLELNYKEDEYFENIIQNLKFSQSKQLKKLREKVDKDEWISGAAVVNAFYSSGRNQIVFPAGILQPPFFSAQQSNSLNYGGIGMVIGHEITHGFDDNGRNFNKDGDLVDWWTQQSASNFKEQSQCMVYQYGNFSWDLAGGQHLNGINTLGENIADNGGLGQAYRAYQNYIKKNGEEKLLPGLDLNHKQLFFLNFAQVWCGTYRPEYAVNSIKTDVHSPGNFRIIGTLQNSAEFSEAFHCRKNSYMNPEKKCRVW
Protocol: The reactions were stopped by adding 0.35 M perchloric acid. In parallel assays, heat-inactivated probes (5 min at 90°C) were used as a control. After centrifugation of sedimented proteins, HPLC analyses were performed by isocratic elution as described by Siems et al. [45]. […] The reactions were stopped by addition of 0.35 M perchloric acid. In parallel assays, heat-inactivated NEP (5 min at 90°C) was used as a control. HPLC analysis was performed by isocratic elution as described [45].
The production of brain membranes and the HPLC-monitored peptide degradation procedures were performed as described in detail by Siems et al. [45]. […] The recombinant NEP was obtained from R&D Systems GmbH (Wiesbaden, Germany).

[3] = system: associative and spatial learning; details: injected intracerebroventricularly; cited from earlier work
Description: It has been shown that NEP targets a variety of peptides involved in learning and memory such as oxytocin [36], NPY [37] or CCK [38]. Thus, marked improvement in learning and memory in very old NEP-deficient mice if compared with their aged-matched controls appears to be explained best by these NEP-degradable neuropeptides. Nevertheless, the known catalytic properties of NEP - it preferentially hydrolyses oligopeptides by cleaving on the N-terminal side of hydrophobic amino acid residues - and the knowledge of further potential learning-associated peptides [39]–[42] motivated us to t ...

[4] = system: NEP; details: rats and mice after treatment with thiorphan; cited from earlier work
Description: Consistent with previous studies showing a broad spectrum of peptidases inhibited by that peptidase inhibitor [18], we hypothesized that there were other factors inhibited by thiorphan as a requisite for murine Aβ accumulation.

[5] = system: NEP; details: infusion into hippocampus or cortical ventricle, young rats, 4 weeks, local Aβ accumulation; cited from earlier work
Description: The underlying mechanisms leading to better learning and improved LTP are still speculative. However, this improved learning seems more likely to be an Aβ-independent effect in our mouse model.

Molecule | peptide degradation in brain membranes of wild-type (+/+) and knockout mice (−/−) [1] | degradation by rcNEP (recovery in %) [2] | effect on associative and spatial learning [3] | deposition of endogenous Aβ [4] | effect on learning and memory [5]
galanin | identified galanin as a NEP substrate | identified galanin as a NEP substrate | – | – | –
glucagon-like peptide 1 [GLP-1] | reduced rate of GLP-1 degradation in brains lacking NEP | – | improve associative and spatial learning | – | –
O=C(O)CNC(=O)C(CS)Cc1ccccc1 (stereo not drawn) [thiorphan] | – | – | – | plaque formation and fibrillization | impaired learning and memory
